From patent publication US20250026849A1 (ARCELLX, published 2025)
Residue numbers refer to the chain shown, from its start.

Experiments:
BCMA = target: T1, BCMA (Homo sapiens (Human), UniProt Q02223 1-54, limits assumed); experiment: ELISA, format not described; design: unit not given here
T1 sequence: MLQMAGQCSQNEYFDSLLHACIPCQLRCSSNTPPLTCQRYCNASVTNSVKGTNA

CD123 = target: T2, CD123 (Homo sapiens (Human), UniProt P26951 19-305, limits assumed); experiment: ELISA; design: unit not given here
T2 construct: The CD123 construct used in the ELISA is not described; also called CD123-Signal
T2 sequence: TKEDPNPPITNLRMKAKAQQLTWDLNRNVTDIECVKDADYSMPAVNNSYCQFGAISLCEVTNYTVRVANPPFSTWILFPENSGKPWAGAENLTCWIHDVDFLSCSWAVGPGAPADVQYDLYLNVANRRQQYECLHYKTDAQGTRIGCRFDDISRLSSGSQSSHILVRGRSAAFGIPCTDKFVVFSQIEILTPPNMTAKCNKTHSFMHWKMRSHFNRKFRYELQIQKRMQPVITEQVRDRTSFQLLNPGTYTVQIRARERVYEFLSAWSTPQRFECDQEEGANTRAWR

B1: D-domain SEQ ID NO: 79 (designed binder)
chain: MGSWVEFKARLEAISSRLTALGGSEAELAAFEKEIAAFESELQAYKGKGNPEVEELRYSAALIRVYLQAYRHN
Work on B1 yielded an ELISA_avg (BCMA) of 8.71.

B2: D-domain SEQ ID NO: 72 (designed binder)
chain: B1 chain with K8Q, A9D, S15T, S16D, T19Y, L62M, Y66I
B2 showed an ELISA_avg (BCMA) of 8.88.

B3: D-domain SEQ ID NO: 73 (designed binder)
chain: MGSWVEFQERLMAISDRLYALGGSEAELAAFEKEIAAFESELQAYKGKGNPEVEELRWQAAMIRYTLQAYRHN
For B3, the ELISA_avg (BCMA) was 6.7.

B4: D-domain SEQ ID NO: 78 (designed binder)
chain: B1 chain with K8R, A9S, S16N, T19R, Y58T, S59T
B4 was tested, and the ELISA_avg (BCMA) was 3.04.

B5: D-domain SEQ ID NO: 80 (designed binder)
chain: B1 chain with V5S, K8Y, A9T, S15N, S16N, T19H, S59T, V65I
Binder B5 has an ELISA_avg (BCMA) of 3.66.

B6: D-domain SEQ ID NO: 81 (designed binder)
chain: B1 chain with V5A, K8Y, A9H, E12D, T19R, S59T, V65I
For B6, the ELISA_avg (BCMA) was 4.31.

B7: D domain of SEQ ID NO: 647 (designed binder)
chain: MGSWVEFSNRLDAIWERLQALGGSEAELAYFEWEIAEFEWELQSYKGKGNPEVEALNAEADAIEWELEAYRHN
In the case of B7, the ELISA_avg (CD123) is reported as 5.1.

B8: D domain of SEQ ID NO: 648 (designed binder)
chain: MGSWEEFHMRLIAIDERLWALGGSEAELAGFEESIAYFESQLQDYKGKGNPEVEALDYEAHAIWRELYAYRHN
B8 gave an ELISA_avg (CD123) of 3.9.

B9: D domain of SEQ ID NO: 649 (designed binder)
chain: MGSWWEFKYRLDAICFRLAALGGSEAELASFEDEIAYFEEDLQGYKGKGNPEVEALDYEALAIWDELAAYRHN
B9 gave an ELISA_avg (CD123) of 3.1.

B10: D domain of SEQ ID NO: 650 (designed binder)
chain: MGSWDEFAMRLEAIQARLFALGGSEAELAIFEDEIAFFETMLQDYKGKGNPEVEALEYEAAAIEAELGAYRHN
Work on B10 yielded an ELISA_avg (CD123) of 3.7.

B11: D domain of SEQ ID NO: 651 (designed binder)
chain: MGSWWEFNARLDAIEDRLMALGGSEAELAYFEDIIASFENILQQYKGKGNPEVEALWYEAYAIEKELNAYRHN
B11 gave an ELISA_avg (CD123) of 3.4.

B12: D domain of SEQ ID NO: 652 (designed binder)
chain: MGSWIEFWNRLEAIEERLYALGGSEAELAYFEDEIAEFEIYLQQYKGKGNPEVEALKHEAEAINKELMAYRHN
In the case of B12, the ELISA_avg (CD123) is reported as 5.2.

B13: D domain of SEQ ID NO: 653 (designed binder)
chain: MGSWNEFVIRLFAIDDRLYALGGSEAELAWFEDEIATFEYELQRYKGKGNPEVEALEYEAEAIVSELFAYRHN
In the case of B13, the ELISA_avg (CD123) is reported as 3.5.

B14: D domain of SEQ ID NO: 654 (designed binder)
chain: MGSWYEFLARLYAIDERLWALGGSEAELATFEHWIADFEEQLQSYKGKGNPEVEALTDEAVAIGEELSAYRHN
B14 showed an ELISA_avg (CD123) of 4.5.

B15: D domain of SEQ ID NO: 655 (designed binder)
chain: MGSWLEFETRLHAIDERLWALGGSEAELAEFEEHIAWFEEDLQFYKGKGNPEVEALDFEADAIGWELWAYRHN
Binder B15 has an ELISA_avg (CD123) of 4.6.

B16: D domain of SEQ ID NO: 656 (designed binder)
chain: MGSWFEFETRLEAIDLRLWALGGSEAELATFEDVIAFFEDWLQFYKGKGNPEVEALKMEAWAIGEELHAYRHN
With B16 the ELISA_avg (CD123) was 6.6.

B17: D domain of SEQ ID NO: 657 (designed binder)
chain: MGSWHEFWQRLEAIEGRLWALGGSEAELADFESLIADFEEQLQEYKGKGNPEVEALMAEAEAIDNELRAYRHN
Work on B17 yielded an ELISA_avg (CD123) of 7.

B18: D domain of SEQ ID NO: 658 (designed binder)
chain: MGSWYEFEQRLEAIEWRLGALGGSEAELATFEEDIADFEEWLQEYKGKGNPEVEALQYEAYAIAEELHAYRHN
B18 showed an ELISA_avg (CD123) of 4.4.

B19: D domain of SEQ ID NO: 659 (designed binder)
chain: MGSWYEFENRLFAIEERLWALGGSEAELAWFEYEIANFEWGLQSYKGKGNPEVEALDNEAEAIDIELAAYRHN
B19 gave an ELISA_avg (CD123) of 3.3.
